Reference: US20220143024A1, “METHODS OF USING IMIPRIDONES” (Board of Regents, The University of Texas System, priority 2019, published 2022)

What was measured:
Assay in all cases: BioID-MS
GTPBP10 (human) = GTPBP10 (human) (UniProt A4D1E9)
ECHS1 (human) = ECHS1 (human) (UniProt P30084)
ACAD9 (human) = ACAD9 (human) (UniProt Q9H845)
GLS (human) = GLS (human) (UniProt O94925)
ABCB10 (human) = ABCB10 (human) (UniProt Q9NRK6)
LYRM4 (human) = LYRM4 (human) (UniProt Q9HD34)
SFXN4 (human) = SFXN4 (human) (UniProt Q6P4A7)
ALDH2 (human) = ALDH2 (human) (UniProt P05091)
ACN9 (human) = ACN9 (human) (UniProt Q9NRP4)
CDK5RAP1 (human) = CDK5RAP1 (human) (UniProt Q96SZ6)
C20orf72 (human) = C20orf72 (human) (UniProt Q9BQP7)
ACAT1 (human) = ACAT1 (human) (UniProt P24752)
C8orf82 (human) = C8orf82 (human) (UniProt Q6P1X6)
NDUFAF5 (human) = NDUFAF5 (human) (UniProt Q5TEU4)
MRPS6 (human) = MRPS6 (human) (UniProt P82932)
C2orf56 (human) = C2orf56 (human) (UniProt Q7L592)
NDUFS7 (human) = NDUFS7 (human) (UniProt O75251)
HSPE1 (human) = HSPE1 (human) (UniProt P61604)
HSPA1L (human) = HSPA1L (human) (UniProt P34931)
FECH (human) = FECH (human) (UniProt P22830)
AK3 (human) = AK3 (human) (UniProt Q9UIJ7)
TST (human) = TST (human) (UniProt Q16762)
POLG (human) = POLG (human) (UniProt P54098)
VWA8 (human) = VWA8 (human) (UniProt A3KMH1)
MTIF2 (human) = MTIF2 (human) (UniProt P46199)
ALDH4A1 (human) = ALDH4A1 (human) (UniProt P30038)
MRPL12 (human) = MRPL12 (human) (UniProt P52815)
HIBCH (human) = HIBCH (human) (UniProt Q6NVY1)
PAM16 (human) = PAM16 (human) (UniProt Q9Y3D7)
MRPS36 (human) = MRPS36 (human) (UniProt P82909)
IDE (human) = IDE (human) (UniProt P14735)
MARS2 (human) = MARS2 (human) (UniProt Q96GW9)
MRPL10 (human) = MRPL10 (human) (UniProt Q7Z7H8)
NDUFS4 (human) = NDUFS4 (human) (UniProt O43181)
ATPAF2 (human) = ATPAF2 (human) (UniProt Q8N5M1)
MRPS16 (human) = MRPS16 (human) (UniProt Q9Y3D3)
DCAKD (human) = DCAKD (human) (UniProt Q8WVC6)
BCKDHA (human) = BCKDHA (human) (UniProt P12694)
MRM3 (human) = MRM3 (human) (UniProt Q9HC36)
MRPS28 (human) = MRPS28 (human) (UniProt Q9Y2Q9)
PET112 (human) = PET112 (human) (UniProt O75879)
TAC01 (human) = TAC01 (human) (UniProt Q9BSH4)
COX5A (human) = COX5A (human) (UniProt P20674)
HINT2 (human) = HINT2 (human) (UniProt Q9BX68)
COX4I1 (human) = COX4I1 (human) (UniProt P13073)
RPS15A (human) = RPS15A (human) (UniProt P62244)
GPT2 (human) = GPT2 (human) (UniProt Q8TD30)
ABAT (human) = ABAT (human) (UniProt P80404)
ABHD10 (human) = ABHD10 (human) (UniProt Q9NUJ1)
THEM4 (human) = THEM4 (human) (UniProt Q5T1C6)
ERAL1 (human) = ERAL1 (human) (UniProt O75616)
NIPSNAP1 (human) = NIPSNAP1 (human) (UniProt Q9BPW8)
MTHFD2 (human) = MTHFD2 (human) (UniProt P13995)
NARS2 (human) = NARS2 (human) (UniProt Q96I59)
NDUFV3 (human) = NDUFV3 (human) (UniProt P56181)
PCK2 (human) = PCK2 (human) (UniProt Q16822)
OXA1L (human) = OXA1L (human) (UniProt Q15070)
BCS1L (human) = BCS1L (human) (UniProt Q9Y276)

Sequence of VWA8 (human) (A3KMH1 29-1905 limits assumed): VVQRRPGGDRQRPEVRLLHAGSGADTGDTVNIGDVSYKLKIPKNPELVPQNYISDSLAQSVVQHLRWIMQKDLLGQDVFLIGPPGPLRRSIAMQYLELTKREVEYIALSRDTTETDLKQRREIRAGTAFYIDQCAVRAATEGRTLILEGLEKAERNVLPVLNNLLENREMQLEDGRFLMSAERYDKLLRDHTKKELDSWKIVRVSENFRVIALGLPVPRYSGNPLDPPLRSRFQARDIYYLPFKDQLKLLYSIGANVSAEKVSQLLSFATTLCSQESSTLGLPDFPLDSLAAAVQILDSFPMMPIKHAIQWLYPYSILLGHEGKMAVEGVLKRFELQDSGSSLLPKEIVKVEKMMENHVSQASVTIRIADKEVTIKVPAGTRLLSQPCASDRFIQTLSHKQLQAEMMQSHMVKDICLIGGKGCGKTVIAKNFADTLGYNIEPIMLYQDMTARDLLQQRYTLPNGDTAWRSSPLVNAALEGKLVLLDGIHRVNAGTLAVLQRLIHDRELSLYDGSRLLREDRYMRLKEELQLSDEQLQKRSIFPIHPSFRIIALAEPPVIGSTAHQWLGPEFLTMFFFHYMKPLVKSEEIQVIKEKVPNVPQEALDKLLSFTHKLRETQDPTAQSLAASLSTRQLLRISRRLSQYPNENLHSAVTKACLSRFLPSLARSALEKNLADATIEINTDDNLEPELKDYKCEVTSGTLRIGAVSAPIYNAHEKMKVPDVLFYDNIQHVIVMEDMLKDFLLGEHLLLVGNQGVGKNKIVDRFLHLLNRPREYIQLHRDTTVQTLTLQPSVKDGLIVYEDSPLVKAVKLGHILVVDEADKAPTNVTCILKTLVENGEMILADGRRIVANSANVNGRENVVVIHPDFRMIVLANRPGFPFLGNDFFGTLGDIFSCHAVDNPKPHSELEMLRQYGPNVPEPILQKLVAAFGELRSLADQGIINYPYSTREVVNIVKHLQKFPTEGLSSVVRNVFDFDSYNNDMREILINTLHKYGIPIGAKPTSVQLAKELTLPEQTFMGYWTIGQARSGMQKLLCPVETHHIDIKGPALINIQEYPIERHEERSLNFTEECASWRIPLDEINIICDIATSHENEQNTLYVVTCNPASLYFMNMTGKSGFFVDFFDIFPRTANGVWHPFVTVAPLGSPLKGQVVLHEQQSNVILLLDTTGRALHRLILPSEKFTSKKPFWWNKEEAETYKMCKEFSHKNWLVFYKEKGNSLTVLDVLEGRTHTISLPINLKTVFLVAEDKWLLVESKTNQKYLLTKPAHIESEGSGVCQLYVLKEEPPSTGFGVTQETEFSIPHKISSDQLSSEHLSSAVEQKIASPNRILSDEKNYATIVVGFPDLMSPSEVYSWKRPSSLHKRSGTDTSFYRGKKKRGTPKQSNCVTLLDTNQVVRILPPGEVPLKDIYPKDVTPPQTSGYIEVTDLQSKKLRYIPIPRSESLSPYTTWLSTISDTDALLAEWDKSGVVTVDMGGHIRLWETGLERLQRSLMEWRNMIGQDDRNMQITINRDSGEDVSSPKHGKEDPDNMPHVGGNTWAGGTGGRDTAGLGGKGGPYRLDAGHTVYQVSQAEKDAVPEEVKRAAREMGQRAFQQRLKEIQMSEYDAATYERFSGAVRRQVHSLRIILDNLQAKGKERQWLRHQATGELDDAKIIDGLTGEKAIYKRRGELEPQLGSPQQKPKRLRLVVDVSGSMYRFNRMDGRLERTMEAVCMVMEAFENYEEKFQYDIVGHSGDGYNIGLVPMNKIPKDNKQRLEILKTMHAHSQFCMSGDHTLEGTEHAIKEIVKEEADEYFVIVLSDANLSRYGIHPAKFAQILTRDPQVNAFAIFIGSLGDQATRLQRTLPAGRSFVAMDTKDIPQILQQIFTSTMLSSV
Sequence of ERAL1 (human) (O75616 44-437 limits assumed): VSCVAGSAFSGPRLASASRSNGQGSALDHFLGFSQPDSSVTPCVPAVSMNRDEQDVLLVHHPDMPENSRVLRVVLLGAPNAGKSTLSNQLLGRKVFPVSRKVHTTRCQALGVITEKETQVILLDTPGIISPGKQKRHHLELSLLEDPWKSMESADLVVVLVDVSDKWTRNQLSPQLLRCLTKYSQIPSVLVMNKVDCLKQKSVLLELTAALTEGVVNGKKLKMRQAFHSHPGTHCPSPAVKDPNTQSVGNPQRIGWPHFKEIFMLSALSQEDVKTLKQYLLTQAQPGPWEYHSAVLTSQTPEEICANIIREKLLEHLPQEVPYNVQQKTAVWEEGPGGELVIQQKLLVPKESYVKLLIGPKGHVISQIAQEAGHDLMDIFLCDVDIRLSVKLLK
Sequence of COX5A (human) (P20674 42-150 limits assumed): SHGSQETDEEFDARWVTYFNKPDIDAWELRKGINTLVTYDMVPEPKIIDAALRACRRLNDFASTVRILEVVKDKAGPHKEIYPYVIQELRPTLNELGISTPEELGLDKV
Sequence of THEM4 (human) (Q5T1C6 37-240 limits assumed): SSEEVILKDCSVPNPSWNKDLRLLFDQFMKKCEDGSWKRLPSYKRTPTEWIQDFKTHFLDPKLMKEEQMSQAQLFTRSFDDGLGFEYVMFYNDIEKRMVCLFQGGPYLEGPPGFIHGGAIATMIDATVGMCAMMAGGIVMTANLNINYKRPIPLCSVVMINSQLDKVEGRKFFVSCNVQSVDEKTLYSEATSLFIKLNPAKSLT
Sequence of MTIF2 (human) (P46199 30-727 limits assumed): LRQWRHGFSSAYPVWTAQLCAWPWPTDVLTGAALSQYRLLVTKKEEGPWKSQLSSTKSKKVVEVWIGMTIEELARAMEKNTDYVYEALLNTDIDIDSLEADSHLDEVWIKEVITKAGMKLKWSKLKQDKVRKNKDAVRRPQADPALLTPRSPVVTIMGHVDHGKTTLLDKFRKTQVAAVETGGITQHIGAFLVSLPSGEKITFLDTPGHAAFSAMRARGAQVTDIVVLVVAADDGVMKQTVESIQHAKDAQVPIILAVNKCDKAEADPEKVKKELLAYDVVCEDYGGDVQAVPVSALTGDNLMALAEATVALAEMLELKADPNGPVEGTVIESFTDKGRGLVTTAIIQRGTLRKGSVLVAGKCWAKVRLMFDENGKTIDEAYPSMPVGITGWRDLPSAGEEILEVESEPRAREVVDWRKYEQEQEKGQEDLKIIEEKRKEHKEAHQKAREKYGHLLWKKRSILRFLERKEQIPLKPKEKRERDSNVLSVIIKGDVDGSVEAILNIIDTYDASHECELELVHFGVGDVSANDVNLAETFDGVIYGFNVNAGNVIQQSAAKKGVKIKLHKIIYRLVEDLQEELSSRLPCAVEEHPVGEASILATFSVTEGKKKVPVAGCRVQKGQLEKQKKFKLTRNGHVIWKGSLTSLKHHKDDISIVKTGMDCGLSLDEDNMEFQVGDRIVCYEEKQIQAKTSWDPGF
Sequence of NDUFAF5 (human) (Q5TEU4 37-345 limits assumed): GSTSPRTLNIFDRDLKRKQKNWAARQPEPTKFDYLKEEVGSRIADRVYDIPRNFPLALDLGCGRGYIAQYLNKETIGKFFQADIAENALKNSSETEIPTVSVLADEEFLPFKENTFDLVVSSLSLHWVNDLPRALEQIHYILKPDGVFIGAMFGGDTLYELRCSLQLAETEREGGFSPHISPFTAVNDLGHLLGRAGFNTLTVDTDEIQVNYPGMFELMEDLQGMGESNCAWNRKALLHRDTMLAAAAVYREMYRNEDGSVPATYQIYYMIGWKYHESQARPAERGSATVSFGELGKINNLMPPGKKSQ
Sequence of GTPBP10 (human) (A4D1E9 whole entry): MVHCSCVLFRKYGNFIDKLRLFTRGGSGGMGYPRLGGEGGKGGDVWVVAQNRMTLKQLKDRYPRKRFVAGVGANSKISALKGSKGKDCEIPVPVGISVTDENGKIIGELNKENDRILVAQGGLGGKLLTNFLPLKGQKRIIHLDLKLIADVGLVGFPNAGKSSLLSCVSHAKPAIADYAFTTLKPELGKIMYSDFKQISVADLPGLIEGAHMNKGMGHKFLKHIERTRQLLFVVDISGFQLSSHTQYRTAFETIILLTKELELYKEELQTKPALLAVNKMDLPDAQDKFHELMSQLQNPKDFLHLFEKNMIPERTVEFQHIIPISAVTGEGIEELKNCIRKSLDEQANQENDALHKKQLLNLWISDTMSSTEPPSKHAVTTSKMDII
Sequence of ACAD9 (human) (Q9H845 38-621 limits assumed): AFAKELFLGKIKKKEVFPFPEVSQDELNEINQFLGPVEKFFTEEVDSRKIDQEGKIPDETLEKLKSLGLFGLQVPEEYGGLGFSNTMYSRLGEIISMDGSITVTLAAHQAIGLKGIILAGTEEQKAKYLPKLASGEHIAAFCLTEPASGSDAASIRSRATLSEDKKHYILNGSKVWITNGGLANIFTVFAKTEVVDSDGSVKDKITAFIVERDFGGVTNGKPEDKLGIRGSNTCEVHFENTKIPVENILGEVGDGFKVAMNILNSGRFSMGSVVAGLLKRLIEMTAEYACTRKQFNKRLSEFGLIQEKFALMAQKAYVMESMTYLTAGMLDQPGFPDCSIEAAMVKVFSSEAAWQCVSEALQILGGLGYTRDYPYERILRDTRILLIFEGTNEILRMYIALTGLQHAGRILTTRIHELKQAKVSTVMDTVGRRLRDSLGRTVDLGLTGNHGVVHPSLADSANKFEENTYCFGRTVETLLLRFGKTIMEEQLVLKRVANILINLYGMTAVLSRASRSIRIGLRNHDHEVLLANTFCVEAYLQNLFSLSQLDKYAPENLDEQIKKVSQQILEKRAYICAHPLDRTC
Sequence of ABHD10 (human) (Q9NUJ1 53-306 limits assumed): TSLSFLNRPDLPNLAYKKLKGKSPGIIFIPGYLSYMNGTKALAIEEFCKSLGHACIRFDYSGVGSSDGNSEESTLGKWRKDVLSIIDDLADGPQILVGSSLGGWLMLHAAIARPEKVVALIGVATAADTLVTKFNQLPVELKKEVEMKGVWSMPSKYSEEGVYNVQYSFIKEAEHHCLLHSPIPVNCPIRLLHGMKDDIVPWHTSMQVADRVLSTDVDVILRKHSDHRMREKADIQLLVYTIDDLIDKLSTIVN
Sequence of MRPS36 (human) (P82909 whole entry): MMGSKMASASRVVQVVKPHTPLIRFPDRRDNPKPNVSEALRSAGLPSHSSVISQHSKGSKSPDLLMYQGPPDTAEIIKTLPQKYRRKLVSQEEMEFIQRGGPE

Substance: FlagBirA-ClpP (Y118A) (from UniProt P06709 1-321; Q16740 57-277) (enzyme)
- Log2 Fold change (vs control) (GTPBP10 (human)): -0.91 log2
- Log2 Fold change (vs control) (ECHS1 (human)): -0.33 log2
- Log2 Fold change (vs control) (ACAD9 (human)): 1.18 log2
- Log2 Fold change (vs control) (GLS (human)): 0.21 log2
- Log2 Fold change (vs control) (ABCB10 (human)): -1.32 log2
- Log2 Fold change (vs control) (LYRM4 (human)): 0.52 log2
- Log2 Fold change (vs control) (SFXN4 (human)): -0.38 log2
- Log2 Fold change (vs control) (ALDH2 (human)): -0.18 log2
- Log2 Fold change (vs control) (ACN9 (human)): -2.14 log2
- Log2 Fold change (vs control) (CDK5RAP1 (human)): -0.26 log2
- Log2 Fold change (vs control) (C20orf72 (human)): 0.12 log2
- Log2 Fold change (vs control) (ACAT1 (human)): -0.01 log2
- Log2 Fold change (vs control) (C8orf82 (human)): 1.6 log2
- Log2 Fold change (vs control) (NDUFAF5 (human)): -0.47 log2
- Log2 Fold change (vs control) (MRPS6 (human)): -0.62 log2
- Log2 Fold change (vs control) (C2orf56 (human)): 0.19 log2
- Log2 Fold change (vs control) (NDUFS7 (human)): -0.08 log2
- Log2 Fold change (vs control) (HSPE1 (human)): 0.92 log2
- Log2 Fold change (vs control) (HSPA1L (human)): -0.71 log2
- Log2 Fold change (vs control) (FECH (human)): -0.68 log2
- Log2 Fold change (vs control) (AK3 (human)): -0.28 log2
- Log2 Fold change (vs control) (TST (human)): -0.51 log2
- Log2 Fold change (vs control) (POLG (human)): 0.26 log2
- Log2 Fold change (vs control) (VWA8 (human)): 1.02 log2
- Log2 Fold change (vs control) (MTIF2 (human)): 0.3 log2
- Log2 Fold change (vs control) (ALDH4A1 (human)): -0.81 log2
- Log2 Fold change (vs control) (MRPL12 (human)): 0.21 log2
- Log2 Fold change (vs control) (HIBCH (human)): 0.35 log2
- Log2 Fold change (vs control) (PAM16 (human)): -0.42 log2
- Log2 Fold change (vs control) (MRPS36 (human)): 0.11 log2
- Log2 Fold change (vs control) (IDE (human)): -0.15 log2
- Log2 Fold change (vs control) (MARS2 (human)): 0.23 log2
- Log2 Fold change (vs control) (MRPL10 (human)): -0.21 log2
- Log2 Fold change (vs control) (NDUFS4 (human)): -0.57 log2
- Log2 Fold change (vs control) (ATPAF2 (human)): -0.91 log2
- Log2 Fold change (vs control) (MRPS16 (human)): 0.1 log2
- Log2 Fold change (vs control) (DCAKD (human)): -3.75 log2
- Log2 Fold change (vs control) (BCKDHA (human)): 1.68 log2
- Log2 Fold change (vs control) (MRM3 (human)): 0.14 log2
- Log2 Fold change (vs control) (MRPS28 (human)): -0.49 log2
- Log2 Fold change (vs control) (PET112 (human)): -0.3 log2
- Log2 Fold change (vs control) (TAC01 (human)): 0.07 log2
- Log2 Fold change (vs control) (COX5A (human)): 0.45 log2
- Log2 Fold change (vs control) (HINT2 (human)): 0.09 log2
- Log2 Fold change (vs control) (COX4I1 (human)): 0.17 log2
- Log2 Fold change (vs control) (RPS15A (human)): -0.45 log2
- Log2 Fold change (vs control) (GPT2 (human)): 0.21 log2
- Log2 Fold change (vs control) (ABAT (human)): -3.58 log2
- Log2 Fold change (vs control) (ABHD10 (human)): -0.16 log2
- Log2 Fold change (vs control) (THEM4 (human)): -0.17 log2
- Log2 Fold change (vs control) (ERAL1 (human)): -1.33 log2
- Log2 Fold change (vs control) (NIPSNAP1 (human)): 0.11 log2
- Log2 Fold change (vs control) (MTHFD2 (human)): 0.22 log2
- Log2 Fold change (vs control) (NARS2 (human)): -0.14 log2
- Log2 Fold change (vs control) (NDUFV3 (human)): 0.05 log2
- Log2 Fold change (vs control) (PCK2 (human)): -0.51 log2
- Log2 Fold change (vs control) (OXA1L (human)): -1 log2
- Log2 Fold change (vs control) (BCS1L (human)): 0.47 log2
